Measured values as given in US6982082 (Harvard, dated 2006).

Key:
[1] = target: CypA wild type with N-terminal FLAG epitope tag, expressed from pBJ5 in Jurkat cells (UniProt P62937 1-165); assay: cell-based or functional assay
[2] = target: CypAgtm (S99T, F113G, C115M) with N-terminal FLAG epitope tag, expressed from pBJ5 in Jurkat cells (UniProt P62937 1-165); assay: cell-based or functional assay
Chain of CypAgtm (S99T, F113G, C115M) with N-terminal FLAG epitope tag, expressed from pBJ5 in Jurkat cells (P62937 whole entry S99T/F113G/C115M): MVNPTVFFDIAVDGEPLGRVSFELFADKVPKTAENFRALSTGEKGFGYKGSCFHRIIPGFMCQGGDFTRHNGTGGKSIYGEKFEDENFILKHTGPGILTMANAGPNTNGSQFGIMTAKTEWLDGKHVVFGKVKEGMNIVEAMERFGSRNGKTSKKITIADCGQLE

Chain of CypA wild type with N-terminal FLAG epitope tag, expressed from pBJ5 in Jurkat cells (P62937 whole entry): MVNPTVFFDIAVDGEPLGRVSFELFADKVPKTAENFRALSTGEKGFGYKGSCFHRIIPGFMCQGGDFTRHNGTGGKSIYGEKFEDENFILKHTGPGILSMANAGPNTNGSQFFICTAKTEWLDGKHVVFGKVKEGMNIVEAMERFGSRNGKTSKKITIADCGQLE

B1: alpha-cyclopentyl, sarcosine11-CsA (CpSar11-CsA) (peptide)
peptide: XXXXXVXAXXX
modifications: head-to-tail cyclic undecapeptide made by cyclising linear peptide 11; residues as printed: CpSar (L-alpha-cyclopentylsarcosine, position 11 of CsA)-MeBmt-Abu-Sar-MeLeu-Val-MeLeu-Ala-D-Ala-MeLeu-MeLeu (N-methylated residues, D-Ala, Abu, MeBmt)
IC50 in Cellular NFAT-Signalling [1]: > 400 nM
IC50 in Cellular NFAT-Signalling [2]: 25 nM
